The values below come from patent US20100310573A1.

The target of this experiment is recombinant human CD4 (catalogue number: 514-CD/CF, manufactured by R&D Systems) (human) (UniProt P01730). Briefly: SPR, Biacore T100; antibody captured on anti-mouse IgG chip, recombinant human CD4 flowed; 1:1 binding model. Background: Surface plasmon resonance follows binding to a sensor surface in real time, without labels.

In general, Kd refers to the equilibrium constant for the complex coming apart. As usually defined, the koff is a measure of how fast the partners let go of each other. As usually defined, the kon is the second-order rate constant of association. “13B8.2 (Beckman Coulter), commercially available anti-human CD4 mouse antibody”: the dissociation constant Kd is 0.352 nM, the koff was 0.000156 s⁻¹ and the kon amounted to 444000 M⁻¹ s⁻¹.
Consider “Leu-3a (BD Biosciences), commercially available anti-human CD4 mouse antibody”, for which the dissociation constant Kd worked out at 0.117 nM, the off-rate (koff) turned out to be 0.000129 s⁻¹ and the kon is 1.1e+06 M⁻¹ s⁻¹.
For “anti-CD4 mouse monoclonal antibody OKT4 (manufactured by BioLegend)” the same measures were 2.9 nM, 0.00306 s⁻¹ and 1.05e+06 M⁻¹ s⁻¹.
